From patent publication US20250154263A1 (FEINSTEIN INSTITUTES FOR MEDICAL RESEARCH, published 2025)

Molecular target: T1, CLECL1 on the cell surface (CLECL1+ CLL PF cells) (human, UniProt Q8IZS7 1-167)
T1 construct: Native CLECL1 on patient CLL cells or the MEC1 CLL line; also called DCAL-1
T1 sequence: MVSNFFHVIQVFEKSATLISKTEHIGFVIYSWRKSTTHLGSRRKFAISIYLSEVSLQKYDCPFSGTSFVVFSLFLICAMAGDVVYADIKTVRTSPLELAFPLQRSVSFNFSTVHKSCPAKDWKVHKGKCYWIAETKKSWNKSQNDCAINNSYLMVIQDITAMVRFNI
Assay: flow cytometry (FIG. 8E; cells not named in the legend)

B1: mAb 17.2 (antibody, mouse IgG1, V domains shown)
VH: EVQLQQSGAELVRSGASVKLSCTTSGFNIKDFYIHWVRQRPEQGLEWIGWIDPKNDDTEYAPRFQGKATVTADTSSNTAYLHLSGLTSEDTAVYYCNGRYPTMDFWGQGTSVT
VL: EIVLTQSPITMTTSPGEKITITCSASSSISSHYLHWYQQKPGFSPKLLIYRASNLASGVPTRFSGSGSGTSYSLTIDTMEAEDVATYFCQQGSSLPLTFGAGTKLELK
notes: also called 17.2.3; hybridoma #17
B1: binds.

B2: mAb 243.6 (antibody, mouse IgG1, V domains shown)
VH: EVQLQQSGTVLVRSGASVKLSCTASGFNIKEYYIHWVKQRPEQGLEWIAWIDLENGESEYAPKFQGKATLTADTSSNTAYLQLSGLTSEDTAVYYCNAFHGNYAHNYAIDYWGQGTSVTVSQ
VL: DIVMSQSPSSLAVSAGEKVTMTCKSSQSLLNSRTRKNYLAWYQQKPGQSPKLLIYWASTRKSGVPDRFTGSGSGTDFTLTISSVQAEDLAVYYCKQSYNLRTFGGGTKLEIK
notes: also called 243.6.1
B2: binds.
